Source: paper doi:10.1101/2023.01.27.525918 (bioRxiv, 2023)

How the values were obtained:
[1] = target: T1, Human RPA complex (RPA70, RPA32, RPA14), recombinant full length (human, UniProt P27694;P15927;P35244); test: SEC
[2] = target: RPA70 as the subunit of the purified recombinant RPA complex (human, UniProt P27694 1-616); test: cross-linking
[3] = target: ZUP1;RPA complex WT (RPA70/RPA32/RPA14) (Homo sapiens;Homo sapiens, UniProt Q96AP4;P27694;P15927;P35244 1-578;1-616;1-270;1-121, |); test: EMSA
[4] = target: T1, Human RPA complex (RPA70, RPA32, …); test: pull-down

T1 sequence (P27694 whole entry, chain 1 of 3): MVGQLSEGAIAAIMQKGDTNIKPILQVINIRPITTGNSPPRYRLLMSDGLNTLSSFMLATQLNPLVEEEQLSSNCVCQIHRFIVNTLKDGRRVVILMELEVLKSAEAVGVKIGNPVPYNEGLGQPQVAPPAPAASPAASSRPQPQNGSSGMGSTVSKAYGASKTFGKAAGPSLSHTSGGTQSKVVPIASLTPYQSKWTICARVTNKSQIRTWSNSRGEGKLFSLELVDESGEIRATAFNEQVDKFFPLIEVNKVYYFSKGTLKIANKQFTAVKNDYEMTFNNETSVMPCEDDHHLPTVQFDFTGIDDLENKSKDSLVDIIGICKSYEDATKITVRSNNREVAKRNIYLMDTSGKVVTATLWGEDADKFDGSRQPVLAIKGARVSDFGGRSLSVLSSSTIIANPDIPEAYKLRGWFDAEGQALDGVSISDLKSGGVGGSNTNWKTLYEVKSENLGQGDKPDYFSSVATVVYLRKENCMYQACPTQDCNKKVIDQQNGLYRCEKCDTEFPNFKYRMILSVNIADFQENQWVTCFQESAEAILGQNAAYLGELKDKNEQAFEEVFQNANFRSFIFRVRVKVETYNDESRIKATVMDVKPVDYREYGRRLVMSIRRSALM
T1 sequence (P15927 whole entry, chain 2 of 3): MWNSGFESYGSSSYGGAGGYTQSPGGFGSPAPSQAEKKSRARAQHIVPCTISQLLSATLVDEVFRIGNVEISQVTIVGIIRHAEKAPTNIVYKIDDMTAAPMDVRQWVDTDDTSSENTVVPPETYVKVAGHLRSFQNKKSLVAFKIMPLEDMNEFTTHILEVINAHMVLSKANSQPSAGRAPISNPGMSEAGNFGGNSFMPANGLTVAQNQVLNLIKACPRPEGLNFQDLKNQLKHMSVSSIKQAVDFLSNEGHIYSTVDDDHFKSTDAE
T1 sequence (P35244 whole entry, chain 3 of 3): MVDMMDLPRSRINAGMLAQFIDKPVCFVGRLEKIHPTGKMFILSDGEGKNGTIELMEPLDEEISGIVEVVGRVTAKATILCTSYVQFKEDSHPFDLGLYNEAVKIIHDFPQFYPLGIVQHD
Sequence of UniProt P27694 (P27694 whole entry, one chain of several): as the sequence (P27694 whole entry, chain 1 of 3) above
Sequence of ZUP1;RPA complex WT (RPA70/RPA32/RPA14) (P27694 whole entry, chain 2 of 3): as the sequence (P27694 whole entry, chain 1 of 3) above
Sequence of ZUP1;RPA complex WT (RPA70/RPA32/RPA14) (P15927 whole entry, chain 3 of 3): as the sequence (P15927 whole entry, chain 2 of 3) above
Sequence of ZUP1;RPA complex WT (RPA70/RPA32/RPA14) (P35244 whole entry, chain 4 of 3): as the sequence (P35244 whole entry, chain 3 of 3) above

B1: ZUP1 C360A (catalytically inactive mutant of full length ZUP1) (enzyme)
chain: MLSCNICGETVTSEPDMKAHLIVHMESEIICPFCKLSGVNYDEMCFHIETAHFEQNTLERNFERINTVQYGTSDNKKDNTLQCGMEVNSSILSGCASNHPKNSAQNLTKDSTLKHEGFYSENLTESRKFLKSREKQSSLTEIKGSVYETTYSPPECPFCGKIEEHSEDMETHVKTKHANLLDIPLEDCDQPLYDCPMCGLICTNYHILQEHVDLHLEENSFQQGMDRVQCSGDLQLAHQLQQEEDRKRRSEESRQEIEEFQKLQRQYGLDNSGGYKQQQLRNMEIEVNRGRMPPSEFHRRKADMMESLALGFDDGKTKTSGIIEALHRYYQNAATDVRRVWLSSVVDHFHSSLGDKGWGAGYRNFQMLLSSLLQNDAYNDCLKGMLIPCIPKIQSMIEDAWKEGFDPQGASQLNNRLQGTKAWIGACEVYILLTSLRVKCHIVDFHKSTGPLGTHPRLFEWILNYYSSEGEGSPKVVCTSKPPIYLQHQGHSRTVIGIEEKKNRTLCLLILDPGCPSREMQKLLKQDIEASSLKQLRKSMGNLKHKQYQILAVEGALSLEEKLARRQASQVFTAEKIP
B1: binds [1]; binds [2].

B2: Gap-26 (mixed)
DNA 1: CTATGGCGAGGCGATTATCAACCCATTTAGTCGTAATAGTGAAGAGTCACGACAACATCG
DNA 2: TAATCGCCTCGCCATAG
DNA 3: CGATGTTGTCGTGACTC
B2: binds [3].

B3: GST-ZUP1 α-2/3-C78 (aa 272-578) (domain or fragment)
chain: SGGYKQQQLRNMEIEVNRGRMPPSEFHRRKADMMESLALGFDDGKTKTSGIIEALHRYYQNAATDVRRVWLSSVVDHFHSSLGDKGWGCGYRNFQMLLSSLLQNDAYNDCLKGMLIPCIPKIQSMIEDAWKEGFDPQGASQLNNRLQGTKAWIGACEVYILLTSLRVKCHIVDFHKSTGPLGTHPRLFEWILNYYSSEGEGSPKVVCTSKPPIYLQHQGHSRTVIGIEEKKNRTLCLLILDPGCPSREMQKLLKQDIEASSLKQLRKSMGNLKHKQYQILAVEGALSLEEKLARRQASQVFTAEKIP
B3: binds [4].
